Results taken from patent US20230414780A1 (VECT HORUS, published 2023).
Positions count from the first letter of the chain named.

B1: B8h1-siSOD1m (VHH)
VHH: EVQLVESGGGVVQPGGSLRLSCAASGEIFSINFMRWYRQAPGKGLEWVAGFTRDGSTNYPDSVKGRFTISRDNAKNTVYLQMNSLRPEDTAVYYCYMLDTWGQGTQVTVSS
modifications: chain 1 pos 125: Gln of the LQR Q-tag carrying the transglutaminase-installed azido linker clicked to the 3' end of the sense strand of the chemically modified siSOD1m duplex (SEQ ID NOs 465/466), written Q
notes: Member of the group m173
B2: B8-siSOD1m (VHH)
VHH: B1 VHH with G44Q, L45R, V63A, M82I, N83D, R86K
modifications: conjugated to the siSOD1m siRNA duplex through a linker; site and tag not given for this conjugate ; VHH conjugated through a C-terminal tag and a stable click linker to the 3' end of the sense strand of the siSOD1m siRNA duplex (SEQ ID NO 465/466). The letters cannot carry this.
notes: Member of the group m173; not shown: C-terminal tag/linker that carries the siRNA
B3: C5-siSOD1m (VHH)
VHH: EVQLVESGGGVVQPGGSLKLSCVASGTDFSINFIRWYRQAPGKQREFVAGFTATGNTNYADSMKGRFTISRDNTKNAVYLQIDSLKPEDTAVYYCYMLDKWGQGTQVTVSS
modifications: chain 1 pos 125: Gln of the LQR Q-tag carrying the transglutaminase-installed azido linker clicked to the 3' end of the sense strand of the chemically modified siSOD1m duplex (SEQ ID NOs 465/466, no 5'VP), written Q
notes: Member of the group m173; siRNA without 5'VP, so not the same as m166
B4: C5-ΔHis-siSOD1m (VHH)
VHH: B3 VHH
modifications: conjugated to the siSOD1m siRNA duplex through a linker; site and tag not given for this conjugate ; Conjugated at a C-terminal tag (not given) through a linker to the chemically modified siSOD1m duplex (SEQ ID NOs 465/466).
notes: Member of the group m173; also called VHH-deltaHis-siSOD1m wherein VHH is C5; not shown: The C-terminal conjugation tag of the 'ΔHis' form, which the text never defines
B5: C5-Thiol-Mal-siSOD1m (VHH)
VHH: B3 VHH
modifications: chain 1 pos 117: free Cys of the tag coupled by thiol-maleimide chemistry to the maleimide-functionalised siSOD1m duplex (SEQ ID NOs 465/466), written C
notes: Member of the group m173; also called VHH-thiol-Mal-siSOD1m wherein VHH is C5
B6: C5h19-siSOD1m (VHH)
VHH: B3 VHH with K19R, V23A, M63V, T74A, A77T, V78L, I82M, D83N, K86R
modifications: conjugated to the siSOD1m siRNA duplex through a linker; site and tag not given for this conjugate ; VHH conjugated through a C-terminal tag and a stable click linker to the 3' end of the sense strand of the siSOD1m siRNA duplex (SEQ ID NO 465/466). The letters cannot carry this.
notes: as for B2
B7: C5V7-siSOD1m (VHH)
VHH: B3 VHH with L98A
modifications: conjugated to the siSOD1m siRNA duplex through a linker; site and tag not given for this conjugate ; VHH conjugated through a C-terminal tag and a stable click linker to the 3' end of the sense strand of the siSOD1m siRNA duplex (SEQ ID NO 465/466). The letters cannot carry this.
notes: as for B2
B8: C5V13-siSOD1m (VHH)
VHH: B3 VHH with T52S
modifications: conjugated to the siSOD1m siRNA duplex through a linker; site and tag not given for this conjugate ; VHH conjugated through a C-terminal tag and a stable click linker to the 3' end of the sense strand of the siSOD1m siRNA duplex (SEQ ID NO 465/466). The letters cannot carry this.
notes: as for B2
B9: C5h18-siSOD1m (VHH)
VHH: B3 VHH with Q44G, R45L, M63V, T74A, A77T, V78L, I82M, D83N, K86R
modifications: conjugated to the siSOD1m siRNA duplex through a linker; site and tag not given for this conjugate ; VHH conjugated through a C-terminal tag and a stable click linker to the 3' end of the sense strand of the siSOD1m siRNA duplex (SEQ ID NO 465/466). The letters cannot carry this.
notes: as for B2
B10: C5V1-siSOD1m (VHH)
VHH: B3 VHH with T27A
modifications: conjugated to the siSOD1m siRNA duplex through a linker; site and tag not given for this conjugate ; VHH conjugated through a C-terminal tag and a stable click linker to the 3' end of the sense strand of the siSOD1m siRNA duplex (SEQ ID NO 465/466). The letters cannot carry this.
notes: as for B2
B11: B8^h1 (VHH)
VHH: B1 VHH
B12: C5^h18 (VHH)
VHH: B3 VHH with Q44G, R45L, M63V, T74A, A77T, V78L, I82M, D83N, K86R
B13: VHH A13 (C5^V13) (VHH)
VHH: B3 VHH with T52S
B14: VHH A1 (C5^V1) (VHH)
VHH: B3 VHH with T27A
B15: C5^h19 (VHH)
VHH: B3 VHH with K19R, V23A, M63V, T74A, A77T, V78L, I82M, D83N, K86R
B16: 13C3-HC-C5h9 (antibody)
heavy: QVQLQQSGPELVRPGVSVKISCKGSGYTFTDYAMHWVKQSHAKSLEWIGVISTKYGKTNYNQKFKGKATMTVDKSSSTAYMELARLTSEDSAIYYCARGDDGYSWGQGTSVTVSSAKTTPPSVYPLAPGSAAQTNSMVTLGCLVKGYFPEPVTVTWNSGSLSSGVHTFPAVLQSDLYTLSSSVTVPSSTWPSETVTCNVAHPASSTKVDKKIVPRDCGCKPCICTVPEVSSVFIFPPKPKDVLTITLTPKVTCVVVDISKDDPEVQFSWFVDDVEVHTAQTQPREEQFNSTFRSVSELPIMHQDWLNGKEFKCRVNSAAFPAPIEKTISKTKGRPKAPQVYTIPPPKEQMAKDKVSLTCMITDFFPEDITVEWQWNGQPAENYKNTQPIMDTDGSYFVYSKLNVQKSNWEAGNTFTCSVLHEGLHNHHTEKSLSHSPGGGGGMAEVQLVESGGGVVQPGGSLRLSCAASGTDFSINFIRWYRQAPGKGLEFVAGFTATGNTNYADSVKGRFTISRDNAKNTLYLQMNSLRPEDTAVYYCYMLDKWGQGTQVTVSSAAA
light: DVVMTQTPLSLPVSLGDQASISCRSGQSLVHSNGNTYLHWYLQKPGQSPKLLIYTVSNRFSGVPDRFSGSGSGSDFTLKISRVEAEDLGVYFCSQNTFVPWTFGGGTKLEIKRADAAPTVSIFPPSSEQLTSGGASVVCFLNNFYPKDINVKWKIDGSERQNGVLNSWTDQDSKDSTYSMSSTLTLTKDEYERHNSYTCEATHKTSTSPIVKSFNRNEC
B17: 13C3-HC-C5h20 (antibody)
heavy: B16 heavy with T521A, L522V
light: B16 light
notes: homodimeric fusion, bivalent for TfR
B18: 13C3-HC-C5h24 (antibody)
heavy: B16 heavy with V507M
light: B16 light
B19: VHH B-siGFPst1 bioconjugate (VHH)
VHH: B1 VHH with G44Q, L45R, V63A, M82I, N83D, R86K
modifications: siGFPst1 siRNA linked to the Gln of the C-terminal Q-tag
notes: not shown: C-terminal tag with His tag and Q-tag

Target: T1, murine TfR expressed by murine neuroblastoma Neuro-2a cells (mouse, UniProt Q62351 1-763)
T1 construct: whole, on cells; also called mTfR (N2a cells)
T1 sequence (Q62351 whole entry): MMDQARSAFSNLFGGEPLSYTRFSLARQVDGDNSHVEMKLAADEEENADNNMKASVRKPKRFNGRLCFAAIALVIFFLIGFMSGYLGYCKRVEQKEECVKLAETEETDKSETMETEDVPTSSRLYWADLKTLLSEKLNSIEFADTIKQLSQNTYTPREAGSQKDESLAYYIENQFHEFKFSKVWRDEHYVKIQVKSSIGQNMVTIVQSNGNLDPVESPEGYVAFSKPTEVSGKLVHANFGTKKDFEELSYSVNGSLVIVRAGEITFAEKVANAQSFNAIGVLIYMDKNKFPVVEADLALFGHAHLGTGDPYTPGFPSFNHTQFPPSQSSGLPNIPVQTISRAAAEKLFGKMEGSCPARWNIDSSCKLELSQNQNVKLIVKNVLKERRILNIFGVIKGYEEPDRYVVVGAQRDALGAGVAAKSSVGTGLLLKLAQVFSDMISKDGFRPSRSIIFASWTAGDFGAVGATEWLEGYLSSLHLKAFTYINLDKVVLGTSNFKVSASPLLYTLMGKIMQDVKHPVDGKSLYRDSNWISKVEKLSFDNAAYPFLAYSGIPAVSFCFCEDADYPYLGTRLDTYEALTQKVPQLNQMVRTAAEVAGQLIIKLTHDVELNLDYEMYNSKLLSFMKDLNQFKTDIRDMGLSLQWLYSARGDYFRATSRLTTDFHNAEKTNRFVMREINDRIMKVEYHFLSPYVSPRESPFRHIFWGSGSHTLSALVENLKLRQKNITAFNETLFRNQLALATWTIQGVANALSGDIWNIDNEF
Test: competition with the fluorescent reference VHH on Neuro-2a cells as in FIG. 25; Ki/app on mTfR
Description: (§1) The binding of VHH-Oligo and VHH-hFc-Oligo conjugates to mTfR was evaluated using a competition assay on living cells expressing the receptor of interest, namely murine neuroblastoma Neuro-2a cells (N2a). N2a cells were grown in Dulbecco's Modified Eagle Medium (DMEM) GlutaMAX supplemented with 10% v/v FBS in 5% CO₂ at 37° C. Cells were seeded two days before experiments in 96-well plates at a density of 50.000 cells/well. […] Resuspended cells were transferred in a 96-deepwell plate (V-bottom) containing 1% fetal bovine serum (FBS)/0.02% sodium azide in phosphate-buffered saline (PBS) and then centrifuged for 5 min at 2000 rpm at 4° C. After removing the supernatant, 5 mM EDTA in D-PBS and 4% paraformaldehyde (PFA) (v/v 1:1) were added into wells to fix cells for 15 min at room temperature. PFA was removed by centrifugation (5 min, 3000 rpm, 4° C.) and cells were resuspended with 5 mM EDTA in D-PBS. Then the cellular A680-associated fluorescence signal was quantified using an Attune™ NxT flow cytometer (Thermo Fisher Scientific) equipped with Attune™ NxT v3.1.2. Experimental data (experimental triplicates) were fitted with GraphPad Prism® software using a nonlinear fit to determine the apparent Ki inhibition constants.

Binder	Ki
B1	76.1 nM
B2	48.8 nM
B3	161 nM
B4	137 nM
B5	164 nM
B6	2630 nM
B7	10100 nM
B8	512 nM
B9	1070 nM
B10	224 nM

Target: T2, human TfR ectodomain fused to a mouse IgG1 Fc fragment (human, UniProt P02786 89-760)
T2 construct: extracellular domain; ectodomain fused to the N-terminal end of the Fc, made in-house; not shown: mouse IgG1 Fc fragment
T2 sequence (P02786 89-760): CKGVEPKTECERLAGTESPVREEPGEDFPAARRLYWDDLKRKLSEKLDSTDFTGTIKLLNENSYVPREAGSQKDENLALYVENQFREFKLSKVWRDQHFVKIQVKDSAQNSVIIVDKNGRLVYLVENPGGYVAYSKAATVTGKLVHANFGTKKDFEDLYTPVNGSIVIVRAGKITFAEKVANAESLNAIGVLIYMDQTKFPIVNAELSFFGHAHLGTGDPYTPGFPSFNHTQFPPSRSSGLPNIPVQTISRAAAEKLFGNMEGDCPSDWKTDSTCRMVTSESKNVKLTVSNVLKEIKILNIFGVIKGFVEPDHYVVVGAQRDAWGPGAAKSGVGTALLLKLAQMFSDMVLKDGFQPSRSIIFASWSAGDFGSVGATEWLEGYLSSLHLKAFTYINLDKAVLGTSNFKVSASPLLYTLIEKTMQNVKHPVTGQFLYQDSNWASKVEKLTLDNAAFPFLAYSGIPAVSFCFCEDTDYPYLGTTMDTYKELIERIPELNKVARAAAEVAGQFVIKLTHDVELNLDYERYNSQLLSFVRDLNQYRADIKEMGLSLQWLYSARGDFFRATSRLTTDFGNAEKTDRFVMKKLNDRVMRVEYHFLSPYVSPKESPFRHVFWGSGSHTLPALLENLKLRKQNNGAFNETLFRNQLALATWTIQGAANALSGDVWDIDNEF
Test: SPR, kinetic
Summary of the method: (§2)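 TfR–mouse Fc fusions, produced in-house, captured on HC 1500M or CM5 chips either directly or via immobilized anti-mouse IgG. VHHs injected in single-cycle or multiple-cycle kinetic mode on Biacore T200.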

Binder	Kd	koff	kon
B11	0.212 nM	9.49e-05 s⁻¹	444000 M⁻¹ s⁻¹
B12	30.9 nM	0.013 s⁻¹	462000 M⁻¹ s⁻¹
B13	0.357 nM	0.000392 s⁻¹	1.14e+06 M⁻¹ s⁻¹
B14	0.876 nM	0.000487 s⁻¹	555000 M⁻¹ s⁻¹
B15	16.3 nM	0.00904 s⁻¹	624000 M⁻¹ s⁻¹

Target: T3, mouse TfR ectodomain fused to a mouse IgG1 Fc fragment (mouse, UniProt Q62351 89-763)
T3 construct: extracellular domain; not shown: mouse IgG1 Fc fragment
T3 sequence (Q62351 89-763): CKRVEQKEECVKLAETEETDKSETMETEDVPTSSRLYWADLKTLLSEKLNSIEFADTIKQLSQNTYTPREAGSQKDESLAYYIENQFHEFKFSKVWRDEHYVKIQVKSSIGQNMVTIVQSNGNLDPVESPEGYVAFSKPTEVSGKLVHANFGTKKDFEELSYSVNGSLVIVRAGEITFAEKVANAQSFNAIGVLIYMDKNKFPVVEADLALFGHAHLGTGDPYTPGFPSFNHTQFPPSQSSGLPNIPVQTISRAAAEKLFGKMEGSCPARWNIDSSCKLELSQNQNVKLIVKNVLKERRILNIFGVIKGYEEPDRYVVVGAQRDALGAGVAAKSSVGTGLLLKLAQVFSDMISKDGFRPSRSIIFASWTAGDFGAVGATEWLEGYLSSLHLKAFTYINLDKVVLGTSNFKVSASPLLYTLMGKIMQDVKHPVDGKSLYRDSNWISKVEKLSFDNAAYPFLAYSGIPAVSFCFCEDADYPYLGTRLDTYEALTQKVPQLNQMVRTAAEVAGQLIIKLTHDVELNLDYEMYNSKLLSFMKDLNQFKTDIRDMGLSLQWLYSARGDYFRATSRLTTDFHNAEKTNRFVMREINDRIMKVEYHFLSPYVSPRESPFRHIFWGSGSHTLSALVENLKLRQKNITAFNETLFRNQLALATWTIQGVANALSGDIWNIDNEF
Test: SPR, kinetic
Summary of the method: as §2

Binder	Kd	koff	kon
B12	336 nM	0.235 s⁻¹	816000 M⁻¹ s⁻¹
B13	78.9 nM	0.0182 s⁻¹	231000 M⁻¹ s⁻¹
B14	244 nM	0.12 s⁻¹	546000 M⁻¹ s⁻¹
B15	643 nM	0.00825 s⁻¹	12800 M⁻¹ s⁻¹

Target: T4, rhesus monkey transferrin receptor (rhTfR) fused to EGFP, on CHO cells (rhesus monkey)
T4 construct: whole, on cells; also called rhesus monkey TfR
Test: apparent Kd, flow cytometry, CHO cells
Summary of the method: (§3)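 CHO cells expressing TfR-EGFP fusions, blocked in PBS/BSA 2%, then incubated with increasing VHH concentrations for 1 hr at 4° C. Bound VHH detected via anti-6His antibody and Alexa647 secondary, cells PFA-fixed, read by flow cytometry. Apparent Kd from nonlinear fit.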

Binder	Kd
B11	1.9 nM
B12	957 nM
B13	28 nM
B14	13 nM
B15	521 nM

Target: T5, mouse transferrin receptor (mTfR) fused to EGFP, on CHO cells (mouse, UniProt Q62351 1-763)
T5 construct: whole, on cells; also called mouse TfR; CHO-mTfR-EGFP; not shown: EGFP
T5 sequence (Q62351 whole entry, the tested form may be a part): as the sequence (Q62351 whole entry) above
Test: apparent Kd, flow cytometry, CHO cells
Summary of the method: as §3

Binder	Kd
B11	2.8 nM
B12	834 nM
B13	187 nM
B14	259 nM
B15	1030 nM

Target: T6, human transferrin receptor (hTfR) fused to EGFP, on CHO cells (human, UniProt P02786 1-760)
T6 construct: whole, on cells; also called human TfR; CHO-hTfR-EGFP; not shown: EGFP from pEGFP-C1 vector, fused to the N-terminal (intracellular) end of hTfR
T6 sequence (P02786 whole entry, the tested form may be a part): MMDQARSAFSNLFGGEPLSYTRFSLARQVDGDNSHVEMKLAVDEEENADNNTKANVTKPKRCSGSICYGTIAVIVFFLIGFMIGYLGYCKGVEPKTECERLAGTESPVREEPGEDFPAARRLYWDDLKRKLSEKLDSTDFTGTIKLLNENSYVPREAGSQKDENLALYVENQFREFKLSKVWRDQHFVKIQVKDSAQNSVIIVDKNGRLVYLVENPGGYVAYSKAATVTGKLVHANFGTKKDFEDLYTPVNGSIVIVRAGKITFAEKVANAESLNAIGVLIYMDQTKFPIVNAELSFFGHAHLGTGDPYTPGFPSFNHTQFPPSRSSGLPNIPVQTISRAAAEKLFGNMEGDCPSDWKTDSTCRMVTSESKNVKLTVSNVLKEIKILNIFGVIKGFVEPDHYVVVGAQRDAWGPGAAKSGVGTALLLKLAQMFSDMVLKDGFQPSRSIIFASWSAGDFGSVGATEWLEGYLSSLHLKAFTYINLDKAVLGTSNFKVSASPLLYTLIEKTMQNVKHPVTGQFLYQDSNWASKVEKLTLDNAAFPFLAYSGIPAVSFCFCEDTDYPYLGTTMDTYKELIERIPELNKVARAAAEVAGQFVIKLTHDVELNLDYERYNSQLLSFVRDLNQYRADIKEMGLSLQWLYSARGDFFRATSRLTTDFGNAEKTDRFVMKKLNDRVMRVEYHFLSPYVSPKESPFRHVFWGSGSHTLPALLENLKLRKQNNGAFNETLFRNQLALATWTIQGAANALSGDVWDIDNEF
Test: apparent Kd, flow cytometry, CHO cells
Summary of the method: as §3

Binder	Kd
B11	4.1 nM
B12	11 nM
B13	3.5 nM
B14	3.2 nM
B15	5.4 nM

Target: T5, mouse transferrin receptor (mTfR) fused …
Test: cell-based flow cytometry assay on mTfR-expressing cells (as in Example XI)

Binder	Bmax
B16	531 RFI
B17	1470 RFI
B18	781 RFI

Target: T5, mouse transferrin receptor (mTfR) fused …
Test: cell-based flow cytometry assay on mTfR-expressing cells (as in Example XI); Kd/app

Binder	Kd
B16	15.8 nM
B17	22.3 nM
B18	20.2 nM

Target: T1, murine TfR expressed by murine …
Test: competition with the fluorescent reference VHH on Neuro-2a cells as in FIG. 25; Ki/app on mTfR, free VHH
Description: as §1

Binder	Ki
B11	43 nM
B12	1480 nM
B13	1320 nM
B14	834 nM
B15	7600 nM

Target: T2, human TfR ectodomain fused to a mouse …
Test: SPR, at equilibrium
Summary of the method: as §2

Binder	Kd
B12	27.3 nM
B15	13.2 nM

Target: T3, mouse TfR ectodomain fused to a mouse …
Test: SPR, at equilibrium
Summary of the method: as §2

Binder	Kd
B12	300 nM
B13	113 nM
B14	228 nM
B15	2750 nM

Target: T6, human transferrin receptor (hTfR) fused …
Test: flow cytometry on CHO-hTfR-EGFP cells, 1 hr at 4 C, anti-6His + Alexa647 anti-mouse; ratio to background fluorescence
Description: FIGS. 15A-15H: In vitro gene silencing activity of VHH-siGFPst1 bioconjugates. […] CHO-hTfR-EGFP cells were incubated 1 hr at 4° C. with various concentrations of the indicated compounds. Detection of VHHs was performed using a primary mouse anti-6His (1/1000) and an Alexa647-conjugated anti-mouse secondary antibody (1/400). Measurements of cell-surface signal associated to VHH were performed using flow cytometry. The results are expressed as the ratio of Alexa647-associated fluorescence intensity of test compounds to that of background fluorescence. […] The total fluorescence associated to the EGFP protein was then quantified using flow cytometry and rationalized to that of untreated (control) cells (set at 100%) *** p≤0.001. […] The total fluorescence associated with the EGFP protein was then quantified using flow cytometry and rationalized to that of untreated (control) cells (set at 100%). […] CHO-hTfR-EGFP cells were incubated with the indicated compounds at 1 μM during 120 hrs at 37° C. Data were processed and analyzed as described in (B). *** p≤0.001 vs. untreated cells. […] The total fluorescence associated with the EGFP protein was then quantified using flow cytometry and rationalized to that of untreated (control) cells (set at 100%).

Binder	EC50 (read off the curve)
B19	~3 nM
